Assay [1] has as its target acetylcholine receptor. The assay can be described thus: SPR, receptor immobilized on CM5 chip, peptide 10 uM.
Assay [2] deals with acetylcholine receptor. The assay can be described thus: SPR, AchR immobilized on CM5 chip, peptide at 10 uM.

As for RKRITR [6mer-1-331], in assay [1], the Binding affinity (RU) is 128 RU.
Consider KKGICK [6mer-1-309], for which the Binding affinity (RU) in assay [1] turned out to be 153 RU.
On the same count and under the same terms, with KRWLSK [6mer-1-299] the figure was 139 RU; with RKRVCK [6mer-1-293], 154 RU; with KRWVQR [6mer-1-285], 122 RU.
In assay [2], KAHMR [5mer-1047] registered a Binding affinity (RU) of 23 RU.
As for KKLFYR [6mer-1-306], the Binding affinity (RU) in assay [1] is 135 RU.
On the same count and under the same terms, with RKWQTK [6mer-1-292] the figure was 122 RU; with KKWVQK [6mer-1-283], 133 RU; with KKQVSR [6mer-1-272], 139 RU.
As to RRWLYR [6mer-1-323], the Binding affinity (RU) in assay [1] came to 149 RU.
Same read-out and setting: as for KRSFRR [6mer-1-317], the figure is 148 RU; as for KRGITR [6mer-1-327], 139 RU; as for RKRQSR [6mer-1-333], 135 RU.
Regarding RRVICK [6mer-1-276], in assay [1], the Binding affinity (RU) is 128 RU.
Still for that read-out and setting: as for KRWVQK [6mer-1-319], the figure is 123 RU.
Still for that read-out and setting: with RRGQSR [6mer-1-302] the figure was 151 RU; with RKWISR [6mer-1-305], 153 RU; with RKSIRR [6mer-1-296], 121 RU.
Still for that read-out and setting: as for KRVQYR [6mer-1-320], the figure is 121 RU; as for RKVQRK [6mer-1-330], 148 RU; as for KKSRRK [6mer-1-318], 145 RU.
In assay [1], RRRRLR [6mer-1-334] returned a Binding affinity (RU) of 154 RU.
Still for that read-out and setting: as for RRLQRR [6mer-1-324], the figure is 128 RU.
With RKRRQR [6mer-1-269], the Binding affinity (RU) in assay [1] is 142 RU.
In assay [1], RKQIRK [6mer-1-316] had a Binding affinity (RU) of 145 RU.
In assay [1], KRWYRR [6mer-1-307] showed a Binding affinity (RU) of 153 RU.
RRRRYR [6mer-1-282]: the Binding affinity (RU) in assay [1] stood at 121 RU.
Molecule KRIPMR [6mer-1-867] came in with a Binding affinity (RU) in assay [1] of 25 RU.
In the case of REPMK [5mer-748], the Binding affinity (RU) in assay [2] stood at 12 RU.
Molecule RRQVSK [6mer-1-271] had a Binding affinity (RU) in assay [1] of 122 RU.
Still for that read-out and setting: with RKWLTR [6mer-1-287] the figure was 136 RU.
On the same count and under the same terms, as for RKRQLK [6mer-1-310], the figure is 127 RU; as for RKWIYK [6mer-1-326], 136 RU.
Still for that read-out and setting: with KKGLCR [6mer-1-277] the figure was 141 RU.
In assay [1], KKSRQK [6mer-1-312] returned a Binding affinity (RU) of 151 RU.
On the same count and under the same terms, as for RKLYSR [6mer-1-304], the figure is 121 RU.
RRRILR [6mer-1-314] yielded a Binding affinity (RU) in assay [1] of 141 RU.
KRRITR [6mer-1-308] registered a Binding affinity (RU) in assay [1] of 135 RU.
On the same count and under the same terms, with KRGVQR [6mer-1-322] the figure was 146 RU.
Take RRGYQK [6mer-1-311]: the Binding affinity (RU) in assay [1] was 127 RU.
Same read-out and setting: as for RKLISK [6mer-1-286], the figure is 139 RU; as for RRLRYR [6mer-1-279], 145 RU; as for KRLLCR [6mer-1-281], 154 RU.
Take RKQQTK [6mer-1-315]: the Binding affinity (RU) in assay [1] was 128 RU.
The same measure, in the same setting: with KKQVSK [6mer-1-273] the figure was 137 RU.
Same read-out and setting: as for RKRYYR [6mer-1-289], the figure is 153 RU; as for KRQQTR [6mer-1-278], 142 RU; as for KKLYCK [6mer-1-298], 147 RU.
Still for that read-out and setting: as for KKLYRR [6mer-1-294], the figure is 123 RU; as for RRWFCK [6mer-1-313], 148 RU; as for RKQVRR [6mer-1-321], 154 RU.
With KRQRCR [6mer-1-295], in assay [1], the Binding affinity (RU) amounted to 148 RU.
On the same count and under the same terms, with KRLLYK [6mer-1-274] the figure was 135 RU; with KKRVQK [6mer-1-332], 122 RU.
The same measure, in the same setting: with RRWQQK [6mer-1-300] the figure was 148 RU; with RKQLTK [6mer-1-290], 146 RU; with RRSILR [6mer-1-301], 154 RU.
Molecule KYDNK [5mer-1048] displayed a Binding affinity (RU) in assay [2] of 12 RU.
Molecule KRCHFR [6mer-1-866] returned a Binding affinity (RU) in assay [1] of 26 RU.
With KRGLRR [6mer-1-270], the Binding affinity (RU) in assay [1] was determined as 149 RU.
Consider RKRVLK [6mer-1-275], for which the Binding affinity (RU) in assay [1] stood at 123 RU.
Same read-out and setting: as for RKLQCK [6mer-1-280], the figure is 149 RU; as for RKWRQK [6mer-1-329], 123 RU.
Same read-out and setting: as for RKQYCK [6mer-1-303], the figure is 123 RU; as for RRGFSK [6mer-1-297], 139 RU; as for KKVQQR [6mer-1-288], 148 RU.
As to RRQIQR [6mer-1-325], the Binding affinity (RU) in assay [1] was determined as 142 RU.
KRSRQK [6mer-1-284] displayed a Binding affinity (RU) in assay [1] of 145 RU.
Same read-out and setting: as for KKQIRK [6mer-1-291], the figure is 142 RU; as for KRWLQK [6mer-1-328], 151 RU.

(Values after patent US20250011363A1, “OPTIMIZED SHORTENED PEPTIDE THAT BINDS TO ACETYLCHOLINE RECEPTOR, AND USE THEREOF” (SKINMED CO., LTD., priority 2021, published 2025).)
